From IntAct's records for PubMed 16977309

Key:
gga3_human GGA3 = molecular target: T1, gga3_human GGA3 (UniProt Q9NZ52)
T1 sequence: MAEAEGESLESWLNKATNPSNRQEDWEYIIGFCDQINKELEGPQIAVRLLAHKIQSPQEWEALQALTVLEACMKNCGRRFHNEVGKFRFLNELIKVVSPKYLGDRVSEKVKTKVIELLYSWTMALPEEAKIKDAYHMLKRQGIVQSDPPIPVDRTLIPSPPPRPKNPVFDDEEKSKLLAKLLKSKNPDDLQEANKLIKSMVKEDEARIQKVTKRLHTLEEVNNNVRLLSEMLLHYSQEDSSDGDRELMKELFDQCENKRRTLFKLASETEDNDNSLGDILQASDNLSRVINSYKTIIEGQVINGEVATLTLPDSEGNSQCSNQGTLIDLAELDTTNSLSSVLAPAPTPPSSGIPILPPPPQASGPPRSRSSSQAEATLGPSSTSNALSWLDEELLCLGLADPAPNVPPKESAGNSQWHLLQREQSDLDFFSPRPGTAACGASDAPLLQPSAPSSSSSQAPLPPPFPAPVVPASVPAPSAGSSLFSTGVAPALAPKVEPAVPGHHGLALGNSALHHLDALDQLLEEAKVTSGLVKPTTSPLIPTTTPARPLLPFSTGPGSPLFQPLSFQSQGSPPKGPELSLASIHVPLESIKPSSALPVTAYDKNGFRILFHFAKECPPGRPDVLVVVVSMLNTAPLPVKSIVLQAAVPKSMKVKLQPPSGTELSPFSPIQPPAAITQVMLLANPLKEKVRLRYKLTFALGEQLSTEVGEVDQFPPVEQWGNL

csk21_rat Csnk2a1 = csk21_rat Csnk2a1 (UniProt P19139)
csk2b_human CSNK2B = csk2b_human CSNK2B (UniProt P67870)
csk21_human CSNK2A1 = csk21_human CSNK2A1 (UniProt P68400)
Sequence of csk21_human CSNK2A1 (P68400 whole entry, looked up): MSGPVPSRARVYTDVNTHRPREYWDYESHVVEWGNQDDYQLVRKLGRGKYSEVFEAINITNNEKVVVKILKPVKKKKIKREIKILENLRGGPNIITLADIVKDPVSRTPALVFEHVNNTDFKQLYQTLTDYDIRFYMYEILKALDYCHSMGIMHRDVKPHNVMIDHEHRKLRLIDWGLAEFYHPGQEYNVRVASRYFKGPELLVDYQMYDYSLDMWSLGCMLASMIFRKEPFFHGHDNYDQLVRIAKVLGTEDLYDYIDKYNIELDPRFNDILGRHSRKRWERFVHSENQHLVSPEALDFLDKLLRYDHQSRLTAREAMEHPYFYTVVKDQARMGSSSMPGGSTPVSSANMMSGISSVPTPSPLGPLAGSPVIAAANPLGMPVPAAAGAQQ

Sequence of csk21_rat Csnk2a1 (P19139 whole entry, looked up): as the sequence (P68400 whole entry, looked up) above, with G335S, S337A, S338G, P340A, P378S, M381I counted along it
Sequence of csk2b_human CSNK2B (P67870 whole entry): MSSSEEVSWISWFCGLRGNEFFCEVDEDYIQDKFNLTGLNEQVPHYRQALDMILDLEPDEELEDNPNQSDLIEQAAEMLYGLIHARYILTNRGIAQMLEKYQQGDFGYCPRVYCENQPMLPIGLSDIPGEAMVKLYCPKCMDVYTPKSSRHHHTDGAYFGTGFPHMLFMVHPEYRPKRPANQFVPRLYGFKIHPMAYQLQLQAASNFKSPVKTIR

Row | Substance | effect of a mutation on the interaction (gga3_human GGA3) | effect of a mutation on the interaction (csk21_rat Csnk2a1) | effect of a mutation on the interaction (csk2b_human CSNK2B) | effect of a mutation on the interaction (csk21_human CSNK2A1)
1 | Phosphofurin acidic cluster sorting protein 1 (Homo sapiens) (from UniProt Q6VY07) K249W | disrupting interaction | – | – | –
2 | Phosphofurin acidic cluster sorting protein 1 (Homo sapiens) (from UniProt Q6VY07) R196A;R197A;K198A;R199A;Y200A | – | disrupting interaction strength | disrupting interaction | disrupting interaction
3 | Phosphofurin acidic cluster sorting protein 1 (Homo sapiens) (from UniProt Q6VY07) Y251A | disrupting interaction | – | – | –
